In patent publication US20260000740A1, “USE OF A L-ASPARAGINASE IN COMBINATION WITH A FERROPTOSIS INDUCER FOR THE TREATMENT OF EXTRANODAL NATURAL KILLER/T-CELL LYMPHOMA” (Institut National de la Santé et de la Recherche Médicale, priority 2022, published 2026):

B1: Erwinase: L-ASP protein from Erwinia chrysanthemi, named crisantaspase, marketed as Erwinase®; SEQ ID NO:1 (protein, listed as Erwinia chrysanthemi)
chain: ADKLPNIVILATGGTIAGSAATGTQTTGYKAGALGVDTLINAVPEVKKLANVKGEQFSNMASENMTGDVVLKLSQRVNELLARDDVDGVVITHGTDTVEESAYFLHLTVKSDKPVVFVAAMRPATAISADGPMNLLEAVRVAGDKQSRGRGVMVVLNDRIGSARYITKTNASTLDTFKANEEGYLGVIIGNRIYYQNRIDKLHTTRSVFDVRGLTSLPKVDILYGYQDDPEYLYDAAIQHGVKGIVYAGMGAGSVSVRGIAGMRKAMEKGVVVIRSTRTGNGIVPPDEELPGLVSDSLNPAHARILLMLALTRTSDPKVIQEYFHTY
B2: Kidrolase: L-Asparaginase from E. Coli (Kidrolase®) (protein, UniProt P00805 23-348, looked up)
L-asparaginase 2: LPNITILATGGTIAGGGDSATKSNYTVGKVGVENLVNAVPQLKDIANVKGEQVVNIGSQDMNDNVWLTLAKKINTDCDKTDGFVITHGTDTMEETAYFLDLTVKCDKPVVMVGAMRPSTSMSADGPFNLYNAVVTAADKASANRGVLVVMNDTVLDGRDVTKTNTTDVATFKSVNYGPLGYIHNGKIDYQRTPARKHTSDTPFDVSKLNELPKVGIVYNYANASDLPAKALVDAGYDGIVSAGVGNGNLYKSVFDTLATAAKTGTAVVRSSRVPTGATTQDAEVDDAKYGFVASGTLNPQKARVLLQLALTQTKDPQQIQQIFNQY

Legend:
GSH = test: Quantification of GSH levels and GSH/GSSG ratio in tumor cells (metabolomics, specific quantification); assay type: cell-based, human; details: for GSH / GSH/GSSG ratio: metabolomic analysis in tumor cells after one day treatment, single agent
Excerpt: (§1) Then, we wanted to uncover the metabolic changes induced by ASNase resistance.

KHYG-1 cells = test: Cell viability measurement by flow cytometry (Annexin V/PI); assay type: cell-based, human; details: for Effect of Gln addition on cell death: Gln addition combined to treatment alone; for Asparaginase sensitivity: KHYG1 cell line
Method: KHYG-1 cells were seeded into flat wells of a 96-wells plate (Falcon) at a final concentration of 0.1 10^6 cells/well. APR-246 was dispensed at a final concentration of 20 uM and Asparaginases were dispensed at a final concentration range from 0.1 to 1 UI/mL. Plates were incubated at 37° C. and 5% CO2 for 72 hours in a humidity chamber. Cell viability was determined by flow cytometry using Annexin V (APC Annexin V, BD Biosciences, ref: 550474, 1:100 dilution)/Propidium Iodide (PI) (Propidium Iodide, Invitrogen, ref: BMS500FI-100, 1:20 dilution) staining. After 20 min incubation at 4° C. away from light, flow cytometry was performed using BD Fortessa cytometer (with HTS device for plate reading).
Flow cytometry data were analysed using FlowJo software and GraphPad-Prism 9. R software and Rstudio interface (version 1.4.1106) were used for synergy score calculation. Calculations were based on the Loewe model.

lipid peroxidation = test: Lipid peroxidation in KHYG1 cell line; assay type: cell-based, human; details: added to RSL3 combined with Erwinase; FIG. 2B
YT1 cell line = test: Asparaginase sensitivity of cell lines; assay type: cell-based, human
MEC-04 cell line = test: Asparaginase sensitivity of cell lines; assay type: cell-based, human
mitochondrial ROS = test: Quantification of mitochondrial ROS levels in tumor cells; assay type: cell-based, human; details: Erwinase compared to Kidrolase; data not shown
Excerpt: as §1

extracellular Gln = test: Extracellular glutamine levels in supernatant of cultured cells; assay type: cell-based, human; details: cells cultured with each drug; compared to Kidrolase; data not shown
Excerpt: Glutamine (Gln) intake from extracellular compartment is converted in Glutamate (Glu) by glutaminase (GLS) and participates to cancer cells protection from oxidative stress through solute carrier family 7-member 11 (SLC7A11) expression. SLC7A11 encodes the cystine/Glu antiporter xCT which imports cysteine into the cell in exchange for Glu […].

[1] = tested on: NALM6 human acute lymphoblastic leukemia cell line; test: Asparaginase sensitivity of cell lines; assay type: cell-based

Row | Molecule | Effect of ferrostatin-1 addition on GSH decrease (GSH; added to RSL3 combined with Erwinase, FIG. 2B) | Effect of co-treatment with ferrostatin-1 on the decrease in cell viability (KHYG-1 cells; RSL3+Erwinase-treated cells, data not shown) | Effect of ferrostatin-1 addition on lipid peroxidation accumulation (lipid peroxidation) | Effect of Gln addition on cell death (KHYG-1 cells; data not shown) | GSH levels (GSH; Erwinase compared to Kidrolase, data not shown) | GSH (GSH; data not shown) | GSH/GSSG ratio (GSH; data not shown) | Effect of extracellular Gln addition on intracellular GSH levels (GSH; upon Erwinase treatment, data not shown) | Asparaginase sensitivity (YT1 cell line) | Asparaginase sensitivity (MEC-04 cell line) | ROS levels (mitochondrial ROS) | Asparaginase sensitivity (KHYG-1 cells) | Gln extracellular levels in the supernatant (extracellular Gln) | Asparaginase sensitivity [1]
1 | CCOC(=O)c1ccc(NC2CCCCC2)c(N)c1 [ferrostatin-1, reference compound] | reversed | abrogated | reversed | – | – | – | – | – | – | – | – | – | – | –
2 | COCC1(CO)C(=O)C2CCN1CC2 (stereo not shown) [APR-246, 2-(hydroxymethyl)-2-(methoxymethyl)-1-azabicyclo[2.2.2]octan-3-one, reference compound] | – | – | – | no effect | – | – | – | – | – | – | – | – | – | –
3 | B1 | – | – | – | partially prevents cell death | GSH decrease | more pronounced | more pronounced | significantly rescues | high sensitivity | high sensitivity | higher ROS levels | resistant | deeper extracellular Gln depletion | resistant
4 | B2 | – | – | – | no effect | – | decrease | decrease | – | high sensitivity | high sensitivity | – | resistant | – | resistant
